Assay results published in US20260242478A1 (published 2026).
Where no end group is shown, it is not given here.

B1: Phage-840 (peptide)
peptide: YCDGHSPQYMQKCL
modifications: cysteine pairing not given here; also: displayed on phage by fusion to pIII, pIII and linker sequence not given here
notes: Peptide-87 library clone, tested as clonal phage supernatant
B2: Phage-843 (peptide)
peptide: YCDGHVEPYLSKCL
modifications: cysteine pairing not given here; also: displayed on phage by fusion to pIII, pIII and linker sequence not given here
notes: as for B1
B3: Phage-842 (peptide)
peptide: YCDGHSQEYMLKCL
modifications: cysteine pairing not given here; also: displayed on phage by fusion to pIII, pIII and linker sequence not given here
notes: as for B1
B4: Phage-844 (peptide)
peptide: YCDGHKPQYMEKCL
notes: as for B1
B5: Phage-841 (peptide)
peptide: YCDGHIPEYLAKCL
modifications: cysteine pairing not given here; also: displayed on phage by fusion to pIII, pIII and linker sequence not given here
notes: as for B1

Key:
[1] = target: T1, Anti-CD28 Fab (SEQ ID NOs: 696, 697); assay: phage binding ELISA on captured anti-CD28 Fab, wells pre-incubated with CD28 antigen as competitor; anti-M13 HRP detection;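 on Anti-CD28 Fab signal in the presence of CD28: crude clonal phage supernatants added to wells preloaded with CD28 antigen, bound phage read by HRP-conjugated anti-M13 antibody, control wells got blocking buffer alone without CD28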
T1 construct: Biotinylated and captured on neutravidin coated plates in the phage ELISA
T1 sequence (VH, as listed by the source, chain 1 of 2): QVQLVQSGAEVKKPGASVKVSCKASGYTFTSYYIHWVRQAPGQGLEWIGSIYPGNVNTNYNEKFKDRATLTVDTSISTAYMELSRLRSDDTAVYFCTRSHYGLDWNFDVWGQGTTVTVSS
T1 sequence (VL, as listed by the source, chain 2 of 2): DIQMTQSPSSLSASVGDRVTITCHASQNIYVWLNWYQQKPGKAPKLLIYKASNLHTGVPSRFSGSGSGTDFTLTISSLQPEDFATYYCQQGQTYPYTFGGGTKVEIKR
Experimental: (§1) After panning, phage infected bacteria were plated out and colonies picked into 96 well blocks. Clonal phage was then amplified and separated from bacterial cells via centrifugation.
(§2) Clonal phage were harvested as crude supematants and screened via standard ELISAs. […] Prior to the addition of clonal phage, wells were incubated with blocking buffer and CD28 antigen or blocking buffer alone. Without washing or aspirating, clonal phage supematants were then added to the wells and incubated for a short time. Wells were then washed followed by detection of bound phage using a horse radish conjugated anti-M13 antibody. Clonal phage of interest were then sent for sequence analysis.

[2] = target: T1, Anti-CD28 Fab (SEQ ID NOs: 696, 697); assay: phage binding ELISA; clonal phage supernatant on biotinylated anti-CD28 Fab captured on neutravidin plate; anti-M13 HRP detection
Experimental: as §1, §2

[3] = target: Anti-CD28 Fab (SEQ ID NOs: 696, 697); assay: phage ELISA on captured anti-CD28 Fab; competitor CD28 antigen pre-incubated in the wells;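 further: clonal phage supernatants added to wells preloaded with CD28 antigen in blocking buffer, control wells buffer only, bound phage read via HRP-linked anti-M13 antibody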
Target sequence in this assay (VH, as listed by the source, chain 1 of 2): as the sequence (VH, as listed by the source, chain 1 of 2) above
Target sequence in this assay (VL, as listed by the source, chain 2 of 2): as the sequence (VL, as listed by the source, chain 2 of 2) above
Experimental: as §1, §2

[4] = target: Anti-CD28 Fab (SEQ ID NOs: 696, 697); assay: phage ELISA; clonal phage on biotinylated anti-CD28 Fab captured on neutravidin, anti-M13 HRP detection
Target sequence in this assay (VH, as listed by the source, chain 1 of 2): as the sequence (VH, as listed by the source, chain 1 of 2) above
Target sequence in this assay (VL, as listed by the source, chain 2 of 2): as the sequence (VL, as listed by the source, chain 2 of 2) above
Experimental: as §1, §2

[5] = target: T2, Anti-CD28 Fab (SEQ ID NOs: 696, 697); assay: phage binding ELISA on captured anti-CD28 Fab, wells pre-incubated with CD28 antigen as competitor;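 further: crude clonal phage supernatants added to wells preloaded with CD28 antigen, bound phage read by HRP-conjugated anti-M13 antibody, control wells got blocking buffer alone without CD28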
T2 construct: In the phage ELISA the Fab was biotinylated and captured on neutravidin coated plates
T2 sequence (VH, as listed by the source, chain 1 of 2): as the sequence (VH, as listed by the source, chain 1 of 2) above
T2 sequence (VL, as listed by the source, chain 2 of 2): as the sequence (VL, as listed by the source, chain 2 of 2) above

[6] = target: T2, Anti-CD28 Fab (SEQ ID NOs: 696, 697); assay: phage binding ELISA, clonal phage on biotinylated anti-CD28 Fab captured on neutravidin plates, anti-M13 HRP detection
Experimental: as §1, §2

Binder | Phage binding ELISA, Anti-CD28 Fab signal in the presence of CD28 [1] | Phage binding ELISA, Anti-CD28 Fab signal [2] | Phage binding ELISA, Anti-CD28 Fab signal in the presence of CD28 [3] | Phage binding ELISA, Anti-CD28 Fab signal [4] | further results
YCAGHVPEYMAKCL [Phage-829 (Peptide-87 library sequence, SEQ ID NO: 1145)] | 0.07 | 1.78 |  |  | 
YCEGHLPAYMQKCL [Phage-827 (Peptide-87 library sequence, SEQ ID NO: 1143)] | 0.07 | 1.78 |  |  | 
YCDGHSAEYITKCL [Phage-830 (Peptide-87 library sequence, SEQ ID NO: 1146)] | 0.06 | 1.77 |  |  | 
YCEGHSPQYVQKCL [Phage-834 (Peptide-87 library sequence, SEQ ID NO: 1150)] | 0.06 | 1.77 |  |  | 
YCEGHLDEYMWKCL [Phage-831 (Peptide-87 library sequence, SEQ ID NO: 1147)] | 0.06 | 1.77 |  |  | 
YCDGHLAEYMVKCL [Phage-825 (Peptide-87 library peptide, SEQ ID NO: 1141)] |  |  | 0.08 | 1.79 | 
B1 |  |  |  |  | Anti-CD28 Fab signal in the presence of CD28 [5]: 0.07; Anti-CD28 Fab (SEQ ID NOs: 696, 697) signal [6]: 1.76
YCDGHKAEYMEKCL [Phage-816 (Peptide-87 library peptide, SEQ ID NO: 1132)] |  |  | 0.09 | 1.81 | 
B2 |  |  |  |  | Anti-CD28 Fab signal in the presence of CD28 [5]: 0.1; Anti-CD28 Fab (SEQ ID NOs: 696, 697) signal [6]: 1.76
YCVGHAPEFMAKCL [Phage-819 (Peptide-87 library peptide, SEQ ID NO: 1135)] |  |  | 0.1 | 1.8 | 
YCDGHAPMYMAKCL [Phage-826 (Peptide-87 library peptide, SEQ ID NO: 1142)] |  |  | 0.08 | 1.79 | 
YCEGHLPIYMSKCL [Phage-838 (Peptide-87 library sequence, SEQ ID NO: 1154)] | 0.09 | 1.76 |  |  | 
YCAGHLPMYMAKCL [Phage-817 (Peptide-87 library peptide, SEQ ID NO: 1133)] |  |  | 0.08 | 1.8 | 
YCDGLASEYMSKCL [Phage-832 (Peptide-87 library sequence, SEQ ID NO: 1148)] | 0.05 | 1.77 |  |  | 
YCVGHLQEYMEKCL [Phage-839 (Peptide-87 library sequence, SEQ ID NO: 1155)] | 0.06 | 1.76 |  |  | 
YCDGHLGVYMAKCL [Phage-822 (Peptide-87 library peptide, SEQ ID NO: 1138)] |  |  | 0.07 | 1.79 | 
YCDGHLDEYMEKCL [Phage-836 (Peptide-87 library sequence, SEQ ID NO: 1152)] | 0.08 | 1.76 |  |  | 
YCDGHTSEYITKCL [Phage-823 (Peptide-87 library peptide, SEQ ID NO: 1139)] |  |  | 0.07 | 1.79 | 
YCEGHHPQYMAKCL [Phage-828 (Peptide-87 library sequence, SEQ ID NO: 1144)] | 0.09 | 1.78 |  |  | 
YCDGHSPEYIAKCL [Phage-824 (Peptide-87 library peptide, SEQ ID NO: 1140)] |  |  | 0.23 | 1.79 | 
B3 |  |  |  |  | Anti-CD28 Fab signal in the presence of CD28 [5]: 0.05; Anti-CD28 Fab (SEQ ID NOs: 696, 697) signal [6]: 1.76
YCAGHAEQYMAKCL [Phage-820 (Peptide-87 library peptide, SEQ ID NO: 1136)] |  |  | 0.08 | 1.8 | 
YCDGHLSEYMFKCL [Phage-821 (Peptide-87 library peptide, SEQ ID NO: 1137)] |  |  | 0.1 | 1.79 | 
YCAGHLPEYMLKCL [Phage-837 (Peptide-87 library sequence, SEQ ID NO: 1153)] | 0.09 | 1.76 |  |  | 
YCDGHTREYIDKCL [Phage-818 (Peptide-87 library peptide, SEQ ID NO: 1134)] |  |  | 0.08 | 1.8 | 
B4 |  |  |  |  | Anti-CD28 Fab signal in the presence of CD28 [5]: 0.08; Anti-CD28 Fab (SEQ ID NOs: 696, 697) signal [6]: 1.76
YCEGHSPEYMRKCL [Phage-835 (Peptide-87 library sequence, SEQ ID NO: 1151)] | 0.08 | 1.77 |  |  | 
B5 |  |  |  |  | Anti-CD28 Fab signal in the presence of CD28 [5]: 0.06; Anti-CD28 Fab (SEQ ID NOs: 696, 697) signal [6]: 1.76
YCDGHSSEYIAKCL [Phage-833 (Peptide-87 library sequence, SEQ ID NO: 1149)] | 0.07 | 1.77 |  |  | 
